Experimental data published in patent US20240209078A1 (Amgen, published 2024).

What was measured:
Experiment in all cases: cell-based or functional assay
[1] = molecular target: T1, human CDH3 (Cadherin-3, P-Cadherin) (human, UniProt P22223 108-829)
human MSLN (mesothelin) [2] = molecular target: T2, human MSLN (mesothelin) (human, UniProt Q13421 37-598)
[3] = molecular target: T1, human CDH3 (Cadherin-3, P-Cadherin); remark: listed apart in the source
human MSLN (mesothelin) [4] = molecular target: T2, human MSLN (mesothelin); remark: listed apart in the source
human MSLN = human MSLN (human, UniProt Q13421 37-598)
human CDH3 = human CDH3 (human, UniProt P22223 108-829)

Binder | cytotoxicity EC50, GSU KO MSLN cells [1] [nM] | cytotoxicity EC50, GSU KO CDH3 cells (human MSLN (mesothelin) [2]) [nM] | cytotoxicity EC50, HCT 116 KO MSLN cells [3] [nM] | cytotoxicity EC50, HCT 116 KO CDH3 cells (human MSLN (mesothelin) [4]) [nM] | EC50 GSU KO CDH3 (cytotoxicity; cells CDH3-, MSLN+) (human MSLN) [nM] | EC50 GSU wt (cytotoxicity; cells CDH3+, MSLN+) (human MSLN) [nM] | Fold selectivity gap, GSU KO CDH3 against GSU wt (human MSLN) [fold] | EC50 GSU KO MSLN (cytotoxicity; cells CDH3+, MSLN-) (human CDH3) [nM] | EC50 GSU wt (cytotoxicity; cells CDH3+, MSLN+) (human CDH3) [nM] | Fold selectivity gap, GSU KO MSLN against GSU wt (human CDH3) [fold]
MS 15-B12 CC × I2L × G4 × scFc × G4 × CH3 15-E11 CC × I2L_GQ (bispecific antibody) QVQLQESGPGLVKPSETLSLTCTVSGGSISSSSYFWGWIRQPPGKCLEWIGNIYYSGSSNYNPSLKSRVTISVDTSKNQFSLKLSSVTAADTAVYYCARLPRGDRDAFDIWGQGTMVTVSSGGGGQGGGGQGGGGQDIVMTQSPSSLSASVGDRVTITCRASQGISNYLAWYQQKPGKVPKLLIYAASTLQSGVPSRFSGSGSGTDFTLTISSLQPEDFATYYCQQSYSTPFTFGCGTKVEIKSGGGGQEVQLVESGGGLVQPGGSLKLSCAASGFTFNKYAMNWVRQAPGKGMEWVARIRSKYNNYATYYADAVKDRFTISRDDSKNTLYLQMNNLKTEDTAVYYCVRAGNFGSSYISYFAYWGQGTLVTVSSGGGGQGGGGQGGGGQQTVVTQEPSLTVSPGGTVTITCGSSTGAVTSGNYPNWIQKKPGQAPRGLIGGTKFLAPGTPARFSGSLEGGKAALTLSGVQPEDEAEYYCVLYYSNRWVFGSGTKLTVLGGGGCPPCPAPELLGGPSVFLFPPKPKDTLMISRTPEVTCVVVDVSHEEPEVKFNWYVDGVEVHNAKTKPCEEQYGSTYRCVSVLTVLHQDWLNGKEYKCKVSNKALPAPIEKTISKAKGQPREPQVYTLPPSREEMTKNQVSLTCLVKGFYPSDIAVEWESNGQPENNYKTTPPVLDSDGSFFLYSKLTVDKSRWQQGNVFSCSVMHEALHNHYTQKSLSLSPGKGGGGQGGGGQGGGGQGGGGQGGGGQGGGGQCPPCPAPELLGGPSVFLFPPKPKDTLMISRTPEVTCVVVDVSHEEPEVKFNWYVDGVEVHNAKTKPCEEQYGSTYRCVSVLTVLHQDWLNGKEYKCKVSNKALPAPIEKTISKAKGQPREPQVYTLPPSREEMTKNQVSLTCLVKGFYPSDIAVEWESNGQPENNYKTTPPVLDSDGSFFLYSKLTVDKSRWQQGNVFSCSVMHEALHNHYTQKSLSLSPGKGGGGQVQLVQSGAEVKKPGASVKVSCKASGYTFTNYWMNWVRQAPGQCLEWMGNIAYGVKGTNYNQKFQGRVTMTVDTSSSTAYMELSRLRSDDTAVYYCATRYFYVMDYWGQGTLVTVSSGGGGQGGGGQGGGGQDIQMTQSPSSLSASVGDRVTITCRASQDISNYLNWYQQKPGKVPKLLIYYTSRLHSGVPSRFSGSGSGTDFTLTISSLQPEDVATYYCVQYAQFPLTFGCGTKVEIKSGGGGQEVQLVESGGGLVQPGGSLKLSCAASGFTFNKYAMNWVRQAPGKGMEWVARIRSKYNNYATYYADAVKDRFTISRDDSKNTLYLQMNNLKTEDTAVYYCVRAGNFGSSYISYFAYWGQGTLVTVSSGGGGQGGGGQGGGGQQTVVTQEPSLTVSPGGTVTITCGSSTGAVTSGNYPNWIQKKPGQAPRGLIGGTKFLAPGTPARFSGSLEGGKAALTLSGVQPEDEAEYYCVLYYSNRWVFGSGTKLTVL | 0.502 | 0.115 | 0.001 | 0.0445 |  |  |  |  |  | 
MS 15-B12 CC × I2L × (G4Q)3 × scFc × (G4Q)3 × CH3 15-E11 CC × I2L (bispecific antibody) QVQLQESGPGLVKPSETLSLTCTVSGGSISSSSYFWGWIRQPPGKCLEWIGNIYYSGSSNYNPSLKSRVTISVDTSKNQFSLKLSSVTAADTAVYYCARLPRGDRDAFDIWGQGTMVTVSSGGGGQGGGGQGGGGQDIVMTQSPSSLSASVGDRVTITCRASQGISNYLAWYQQKPGKVPKLLIYAASTLQSGVPSRFSGSGSGTDFTLTISSLQPEDFATYYCQQSYSTPFTFGCGTKVEIKSGGGGQEVQLVESGGGLVQPGGSLKLSCAASGFTFNKYAMNWVRQAPGKGMEWVARIRSKYNNYATYYADAVKDRFTISRDDSKNTLYLQMNNLKTEDTAVYYCVRAGNFGSSYISYFAYWGQGTLVTVSSGGGGQGGGGQGGGGQQTVVTQEPSLTVSPGGTVTITCGSSTGAVTSGNYPNWIQKKPGQAPRGLIGGTKFLAPGTPARFSGSLEGGKAALTLSGVQPEDEAEYYCVLYYSNRWVFGSGTKLTVLGGGGQGGGGQGGGGQCPPCPAPELLGGPSVFLFPPKPKDTLMISRTPEVTCVVVDVSHEEPEVKFNWYVDGVEVHNAKTKPCEEQYGSTYRCVSVLTVLHQDWLNGKEYKCKVSNKALPAPIEKTISKAKGQPREPQVYTLPPSREEMTKNQVSLTCLVKGFYPSDIAVEWESNGQPENNYKTTPPVLDSDGSFFLYSKLTVDKSRWQQGNVFSCSVMHEALHNHYTQKSLSLSPGKGGGGQGGGGQGGGGQGGGGQGGGGQGGGGQCPPCPAPELLGGPSVFLFPPKPKDTLMISRTPEVTCVVVDVSHEEPEVKFNWYVDGVEVHNAKTKPCEEQYGSTYRCVSVLTVLHQDWLNGKEYKCKVSNKALPAPIEKTISKAKGQPREPQVYTLPPSREEMTKNQVSLTCLVKGFYPSDIAVEWESNGQPENNYKTTPPVLDSDGSFFLYSKLTVDKSRWQQGNVFSCSVMHEALHNHYTQKSLSLSPGKGGGGQGGGGQGGGGQQVQLVQSGAEVKKPGASVKVSCKASGYTFTNYWMNWVRQAPGQCLEWMGNIAYGVKGTNYNQKFQGRVTMTVDTSSSTAYMELSRLRSDDTAVYYCATRYFYVMDYWGQGTLVTVSSGGGGQGGGGQGGGGQDIQMTQSPSSLSASVGDRVTITCRASQDISNYLNWYQQKPGKVPKLLIYYTSRLHSGVPSRFSGSGSGTDFTLTISSLQPEDVATYYCVQYAQFPLTFGCGTKVEIKSGGGGQEVQLVESGGGLVQPGGSLKLSCAASGFTFNKYAMNWVRQAPGKGMEWVARIRSKYNNYATYYADAVKDRFTISRDDSKNTLYLQMNNLKTEDTAVYYCVRAGNFGSSYISYFAYWGQGTLVTVSSGGGGQGGGGQGGGGQQTVVTQEPSLTVSPGGTVTITCGSSTGAVTSGNYPNWIQKKPGQAPRGLIGGTKFLAPGTPARFSGSLEGGKAALTLSGVQPEDEAEYYCVLYYSNRWVFGSGTKLTVL | 1.73 | 2.9 | 0.0035 | 0.0292 |  |  |  |  |  | 
CH3 15-E11 CC × I2L × (G4Q)3 × scFc × (G4Q)3 × MS 15-B12 CC × I2L (bispecific antibody) QVQLVQSGAEVKKPGASVKVSCKASGYTFTNYWMNWVRQAPGQCLEWMGNIAYGVKGTNYNQKFQGRVTMTVDTSSSTAYMELSRLRSDDTAVYYCATRYFYVMDYWGQGTLVTVSSGGGGQGGGGQGGGGQDIQMTQSPSSLSASVGDRVTITCRASQDISNYLNWYQQKPGKVPKLLIYYTSRLHSGVPSRFSGSGSGTDFTLTISSLQPEDVATYYCVQYAQFPLTFGCGTKVEIKSGGGGQEVQLVESGGGLVQPGGSLKLSCAASGFTFNKYAMNWVRQAPGKGMEWVARIRSKYNNYATYYADAVKDRFTISRDDSKNTLYLQMNNLKTEDTAVYYCVRAGNFGSSYISYFAYWGQGTLVTVSSGGGGQGGGGQGGGGQQTVVTQEPSLTVSPGGTVTITCGSSTGAVTSGNYPNWIQKKPGQAPRGLIGGTKFLAPGTPARFSGSLEGGKAALTLSGVQPEDEAEYYCVLYYSNRWVFGSGTKLTVLGGGGQGGGGQGGGGQCPPCPAPELLGGPSVFLFPPKPKDTLMISRTPEVTCVVVDVSHEEPEVKFNWYVDGVEVHNAKTKPCEEQYGSTYRCVSVLTVLHQDWLNGKEYKCKVSNKALPAPIEKTISKAKGQPREPQVYTLPPSREEMTKNQVSLTCLVKGFYPSDIAVEWESNGQPENNYKTTPPVLDSDGSFFLYSKLTVDKSRWQQGNVFSCSVMHEALHNHYTQKSLSLSPGKGGGGQGGGGQGGGGQGGGGQGGGGQGGGGQCPPCPAPELLGGPSVFLFPPKPKDTLMISRTPEVTCVVVDVSHEEPEVKFNWYVDGVEVHNAKTKPCEEQYGSTYRCVSVLTVLHQDWLNGKEYKCKVSNKALPAPIEKTISKAKGQPREPQVYTLPPSREEMTKNQVSLTCLVKGFYPSDIAVEWESNGQPENNYKTTPPVLDSDGSFFLYSKLTVDKSRWQQGNVFSCSVMHEALHNHYTQKSLSLSPGKGGGGQGGGGQGGGGQQVQLQESGPGLVKPSETLSLTCTVSGGSISSSSYFWGWIRQPPGKCLEWIGNIYYSGSSNYNPSLKSRVTISVDTSKNQFSLKLSSVTAADTAVYYCARLPRGDRDAFDIWGQGTMVTVSSGGGGQGGGGQGGGGQDIVMTQSPSSLSASVGDRVTITCRASQGISNYLAWYQQKPGKVPKLLIYAASTLQSGVPSRFSGSGSGTDFTLTISSLQPEDFATYYCQQSYSTPFTFGCGTKVEIKSGGGGQEVQLVESGGGLVQPGGSLKLSCAASGFTFNKYAMNWVRQAPGKGMEWVARIRSKYNNYATYYADAVKDRFTISRDDSKNTLYLQMNNLKTEDTAVYYCVRAGNFGSSYISYFAYWGQGTLVTVSSGGGGQGGGGQGGGGQQTVVTQEPSLTVSPGGTVTITCGSSTGAVTSGNYPNWIQKKPGQAPRGLIGGTKFLAPGTPARFSGSLEGGKAALTLSGVQPEDEAEYYCVLYYSNRWVFGSGTKLTVL | 3.33 | 0.171 | 0.0085 | 0.0226 |  |  |  |  |  | 
MS 15-B12 CC × 6H10.09 × (G4) × heFc (A) * heFc (B) × (G4) × CH3 15-E11 CC × 6H10.09 (Seq ID 326 + 327) (bispecific antibody) chain 1: not shown chain 2: DKTHTCPPCPAPELLGGPSVFLFPPKPKDTLMISRTPEVTCVVVDVSHEDPEVKFNWYVDGVEVHNAKTKPCEEQYGSTYRCVSVLTVLHQDWLNGKEYKCKVSNKALPAPIEKTISKAKGQPREPQVYTLPPSRKEMTKNQVSLTCLVKGFYPSDIAVEWESNGQPENNYKTTPPVLKSDGSFFLYSKLTVDKSRWQQGNVFSCSVMHEALHNHYTQKSLSLSPGKGGGGQVQLVQSGAEVKKPGASVKVSCKASGYTFTNYWMNWVRQAPGQCLEWMGNIAYGVKGTNYNQKFQGRVTMTVDTSSSTAYMELSRLRSDDTAVYYCATRYFYVMDYWGQGTLVTVSSGGGGSGGGGSGGGGSDIQMTQSPSSLSASVGDRVTITCRASQDISNYLNWYQQKPGKVPKLLIYYTSRLHSGVPSRFSGSGSGTDFTLTISSLQPEDVATYYCVQYAQFPLTFGCGTKVEIKSGGGGSEVQLVESGGGLVQPGGSLKLSCAASGFTFNKYAMNWVRQAPGKGMEWVARIRSKYNNYATYYADAVKDRFTISRDDSKNTLYLQMNNLKTEDTAVYYCVRAGNFGSSYISYFAYWGQGTLVTVSSGGGGSGGGGSGGGGSQTVVTQEPSLTVSPGGTVTITCGSSTGAVTSGNYPNWIQKKPGQAPRGLIGGTKFLAPGTPARFSGSLEGGKAALTLSGVQPEDEAEYYCVLYYSNRWVFGSGTKLTVL |  |  |  |  | 0.391 | 0.0032 | 121 | 0.533 | 0.0032 | 165
